Results on four compounds are retold here after article PMC9628860, “Electron Transfer to Hydroxylase through Component Interactions in Soluble Methane Monooxygenase” (Journal of Microbiology and Biotechnology, 2022).

Counter-ions that a name gives are not always drawn.

In test [1] the target is T1, MMOR (Methylosinus sporium, UniProt Q27RN2, Y93A).
T1 construct: gene mmoC; full-length reductase (39 kDa), recombinant in E. coli BL21(DE3) from pET30a(+); ferredoxin domain = residues 1-98
In words: UV-visible spectrum of purified protein, cofactor content. The following applies: FAD as purified, calibrated for [2Fe-2S] absorption; FAD/NADH-binding domain; stoichiometry, not an affinity; extra FAD said to be non-specific.

The target of test [2] is T2, MMOR (Methylosinus sporium, UniProt Q27RN2, Y95A).
T2 construct: gene mmoC; full-length reductase (39 kDa), recombinant in E. coli BL21(DE3) from pET30a(+); ferredoxin domain = residues 1-98
The description is as above. The following applies: FAD as purified, calibrated for [2Fe-2S] absorption; FAD/NADH-binding domain.

The target of test [3] is T3, sMMO (MMOH + MMOB + MMOR) (Methylosinus sporium, UniProt Q27RN2, Y93A).
T3 construct: gene mmoC; recombinant MMOB and MMOR (39 kDa) from E. coli; with Methane monooxygenase component A alpha chain; Methane monooxygenase component A beta chain; Methane monooxygenase component A gamma chain; Methane monooxygenase regulatory protein B
In words: NADH consumption at […] nm. The test is classed as biochemical. The following applies: turnover; propylene and O2 as co-substrates; 1 uM MMOH, 2 equiv. MMOB, 0.5 or 1.0 equiv. MMOR; 25 mM phosphate, 50 mM NaCl, pH 7.0.

In test [4] the target is Hydroxylase (MMOH) of soluble methane monooxygenase (sMMO) from Methylosinus sporium 5 (Methylosinus sporium 5). Nature of the test: other fluorescence titration; tryptophan quenching (Ex 282 nm, Em 336 nm); MMOH 0.32 uM in the cuvette, MMORs added from 0 to 110 equivalents; 25 mM MOPS, 50 mM NaCl, 1 mM DTT, pH 6.5; fitted with a 1:2 binding model.

T2 sequence (Q27RN2 entry or part of it Y95A): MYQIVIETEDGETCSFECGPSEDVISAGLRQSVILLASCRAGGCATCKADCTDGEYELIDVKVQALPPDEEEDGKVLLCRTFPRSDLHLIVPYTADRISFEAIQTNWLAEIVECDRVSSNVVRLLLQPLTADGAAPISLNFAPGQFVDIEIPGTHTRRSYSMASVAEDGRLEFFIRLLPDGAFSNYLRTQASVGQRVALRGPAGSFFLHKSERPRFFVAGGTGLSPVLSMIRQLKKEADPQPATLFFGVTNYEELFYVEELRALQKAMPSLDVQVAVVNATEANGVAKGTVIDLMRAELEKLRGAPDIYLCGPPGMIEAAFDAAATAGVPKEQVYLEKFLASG
T1 sequence (Q27RN2 entry or part of it Y93A): as the sequence (Q27RN2 entry or part of it Y95A) above, with Y93A, A95Y counted along it
T3 sequence (Q27RN2 entry or part of it Y93A): as the sequence (Q27RN2 entry or part of it Y95A) above, with Y93A, A95Y counted along it
T3 sequence (Q27RN4 entry or part of it, stated change not applied, further chain): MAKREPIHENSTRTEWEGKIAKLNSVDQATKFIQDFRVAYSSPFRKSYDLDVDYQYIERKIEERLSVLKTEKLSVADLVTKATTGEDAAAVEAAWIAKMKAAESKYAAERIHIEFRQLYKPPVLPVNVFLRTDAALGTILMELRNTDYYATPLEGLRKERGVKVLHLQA
T3 sequence (Q27RN6 entry or part of it, stated change not applied, further chain): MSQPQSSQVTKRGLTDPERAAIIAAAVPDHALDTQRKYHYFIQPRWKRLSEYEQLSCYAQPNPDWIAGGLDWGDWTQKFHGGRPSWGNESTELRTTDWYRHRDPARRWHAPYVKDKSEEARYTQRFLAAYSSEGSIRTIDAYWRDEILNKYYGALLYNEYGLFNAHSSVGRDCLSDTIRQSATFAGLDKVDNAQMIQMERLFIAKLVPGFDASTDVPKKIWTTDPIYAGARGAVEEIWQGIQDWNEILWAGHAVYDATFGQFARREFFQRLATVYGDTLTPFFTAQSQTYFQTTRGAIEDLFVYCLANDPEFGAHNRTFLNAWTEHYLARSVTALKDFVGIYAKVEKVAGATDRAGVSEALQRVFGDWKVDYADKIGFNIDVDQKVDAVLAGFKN

For the compound `Cc1cc2nc3c(=O)[nH]c(=O)nc-3n(C[C@H](O)[C@H](O)[C@H](O)COP(=O)(O)OP(=O)(O)OC[C@H]3O[C@@H](n4cnc5c(N)ncnc54)[C@H](O)[C@@H]3O)c2cc1C` [flavin adenine dinucleotide], on MMOR [1], the FAD/protein amounted to 2.0 FAD/protein. The “FADs per purified reductase” value on MMOR [2] was “two irons and two FADs per purified reductase”.
For the compound `NC(=O)C1=CN([C@@H]2O[C@H](COP(=O)(O)OP(=O)(O)OC[C@H]3O[C@@H](n4cnc5c(N)ncnc54)[C@H](O)[C@@H]3O)[C@@H](O)[C@H]2O)C=CC1` [β-nicotinamide adenine dinucleotide, reduced disodium salt hydrate], the “NADH consumption at 340 nm” value in test [3] is recorded as “The activity of MMOR-Y93A was dramatically reduced”.
As for MMOR-Y93A (enzyme), in test [4], the Kd1 (first site, 1:2 binding model) came to 0.15 µM and the Kd2 (second site, 1:2 binding model) amounted to 17 µM.
Consider MMOR-Y95A (enzyme), for which, in test [4], the Kd1 (first site, 1:2 binding model) was found to be 0.21 µM and the Kd2 (second site, 1:2 binding model) was 7.97 µM.
